These results are taken from publication PMC4573856 (Genes & Development, 2015).

Like-named read-outs stand apart in the source and are kept apart here.

The target in experiment [1] is T1, Dm eIF4E (residues 69-248) used for ITC (Drosophila melanogaster, UniProt P48598-2 69-248).
T1 sequence (looked up): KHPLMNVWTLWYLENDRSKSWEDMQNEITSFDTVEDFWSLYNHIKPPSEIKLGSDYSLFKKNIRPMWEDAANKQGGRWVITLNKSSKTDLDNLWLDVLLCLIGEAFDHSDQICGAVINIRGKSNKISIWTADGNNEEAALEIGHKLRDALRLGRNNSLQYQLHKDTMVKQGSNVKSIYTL
As to the kind of experiment: ITC. For orientation: ITC needs no label: the signal is the heat of the interaction.

The target in experiment [2] is T2, His6-tagged Dm eIF4E (residues 69-248) (Drosophila melanogaster, UniProt P48598-2 69-248).
T2 sequence (looked up): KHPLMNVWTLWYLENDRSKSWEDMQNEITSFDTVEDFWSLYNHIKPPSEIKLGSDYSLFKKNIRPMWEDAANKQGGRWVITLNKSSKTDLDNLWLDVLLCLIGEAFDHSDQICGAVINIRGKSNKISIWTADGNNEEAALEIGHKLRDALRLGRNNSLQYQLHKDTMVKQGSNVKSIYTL
As to the kind of experiment: pull-down.

Experiment [3] deals with T2, His6-tagged Dm eIF4E (residues 69-248). As to the kind of experiment: pull-down. This is another data set of the same source.

By Kd is commonly meant the constant that tells how readily two partners part at equilibrium. Higher therefore signals weaker binding.

Take SRVSYDIEHLLYYSMSPHSWTLPTDWQKMQETAPSILRNKDLQD (domain or fragment, Drosophila melanogaster, UniProt Q9VR35 577-620, looked up) [GB1-stabilized Dm Mxt peptide C + NC (residues 577-620)]: in experiment [1], the Kd stood at 5 nM. This counts as single-digit nanomolar.

Consider SRVSYDREHLLYYRMSPHSWTLPTDWQKMQETAPSILRNKDLQD (domain or fragment, Drosophila melanogaster, UniProt Q9VR35 577-620, looked up) [GB1-tagged Dm Mxt C + NC IS-RR mutant peptide], for which the binding result in experiment [2] is reported as “binds”. Consider SRVSYDREHLLYYRMSPHSWTLPTDWQKMQETAPSILRNKDLQD (domain or fragment, Drosophila melanogaster, UniProt Q9VR35 577-620, looked up) [MBP-tagged Dm Mxt fragment 577-620 IS-RR mutant C-terminally fused to GB1], for which the binding result in experiment [3] was “binds”.

B1: Dm eIF4G (residues 578-650) C-terminally fused to GB1 (domain or fragment, Drosophila melanogaster, UniProt O61380 578-650, looked up)
chain: PETTLNDKQDSTDLKVKVSAKISSIINYNEGQWSPNNPSGKKQYDREQLLQLREVKASRIQPEVKNVSILPQP
Take B1: in experiment [3], the binding result was “binds”.

B2: GB1-stabilized Dm Mxt peptide (residues 577-640) (domain or fragment, Drosophila melanogaster, UniProt Q9VR35 577-640, looked up)
chain: SRVSYDIEHLLYYSMSPHSWTLPTDWQKMQETAPSILRNKDLQDESQRFDGDKYLASIKTAAKR
modifications: also: 15N-labelled, GB1-stabilized (GB1 fusion)
B2: in experiment [1], the Kd stood at 0.5 nM.
